Experimental findings from US20080292632A1 (US Dept. of Health and Human Services, published 2008) are described below.

The target in experiment [1] is T1, CD30 on transfected 293T cells (human, UniProt P28908 19-595).
T1 construct: whole, on cells
T1 sequence (looked up): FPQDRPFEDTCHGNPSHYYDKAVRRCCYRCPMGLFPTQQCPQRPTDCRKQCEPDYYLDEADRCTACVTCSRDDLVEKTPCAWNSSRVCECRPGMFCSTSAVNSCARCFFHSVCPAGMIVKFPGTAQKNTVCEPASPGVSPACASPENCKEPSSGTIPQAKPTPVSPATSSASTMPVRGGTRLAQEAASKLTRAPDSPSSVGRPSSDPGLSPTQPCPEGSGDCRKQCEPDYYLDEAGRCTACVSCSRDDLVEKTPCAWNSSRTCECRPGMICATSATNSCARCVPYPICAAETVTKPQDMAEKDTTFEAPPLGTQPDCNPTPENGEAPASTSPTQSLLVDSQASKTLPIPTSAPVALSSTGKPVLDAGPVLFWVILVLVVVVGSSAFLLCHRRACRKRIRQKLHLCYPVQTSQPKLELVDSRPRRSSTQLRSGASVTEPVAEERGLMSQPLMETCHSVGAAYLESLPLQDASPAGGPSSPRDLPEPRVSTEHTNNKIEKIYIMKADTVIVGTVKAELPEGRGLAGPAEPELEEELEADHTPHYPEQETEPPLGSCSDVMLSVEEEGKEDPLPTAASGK
Kind of experiment: cell-ELISA, formalin-fixed cells. The method, then: Cell-ELISA. […] After overnight culture, the cells were fixed with 3.7% formalin in the culture medium at room temperature overnight. Incubation with a dilution of MAbs, secondary antibody and substrate was performed as described in the ELISA protocol except that 1% FBS in PBS was used for washing.

Experiment [2] deals with T2, IRTA2 extracellular domain-Fc fusion protein (human, UniProt Q96RD9 16-851).
T2 construct: extracellular domain; also called IRTA2-Fc; IRTA2-HFc; not shown: human IgG1 hinge and Fc
T2 sequence (looked up): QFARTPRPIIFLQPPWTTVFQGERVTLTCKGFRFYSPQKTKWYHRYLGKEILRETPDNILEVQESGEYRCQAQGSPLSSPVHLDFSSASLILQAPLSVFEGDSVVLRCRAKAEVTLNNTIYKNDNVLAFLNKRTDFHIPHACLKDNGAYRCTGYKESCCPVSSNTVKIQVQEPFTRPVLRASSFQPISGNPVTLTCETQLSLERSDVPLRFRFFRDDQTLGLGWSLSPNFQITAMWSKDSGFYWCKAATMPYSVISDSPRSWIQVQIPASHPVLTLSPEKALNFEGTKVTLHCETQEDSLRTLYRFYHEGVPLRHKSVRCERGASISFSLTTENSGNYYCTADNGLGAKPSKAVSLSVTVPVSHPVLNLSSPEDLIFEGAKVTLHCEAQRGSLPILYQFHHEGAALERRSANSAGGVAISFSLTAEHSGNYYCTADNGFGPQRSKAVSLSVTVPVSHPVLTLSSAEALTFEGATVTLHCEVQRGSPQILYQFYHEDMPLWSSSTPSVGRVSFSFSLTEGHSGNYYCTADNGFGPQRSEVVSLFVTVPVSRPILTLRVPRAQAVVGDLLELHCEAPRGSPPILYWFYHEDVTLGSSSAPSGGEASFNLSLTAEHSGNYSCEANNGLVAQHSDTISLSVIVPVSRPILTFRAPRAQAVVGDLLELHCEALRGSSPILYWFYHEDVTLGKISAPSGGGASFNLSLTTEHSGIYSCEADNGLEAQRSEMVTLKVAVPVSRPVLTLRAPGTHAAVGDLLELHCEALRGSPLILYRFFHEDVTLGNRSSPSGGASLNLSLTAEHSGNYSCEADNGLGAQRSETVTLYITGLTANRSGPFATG
In words: equilibrium ELISA (Friguet). The procedure: ELISA. In a typical indirect ELISA for the screening of hybridomas, microtiter plates (MaxiSorp; Nalge Nunc, Rochester, N.Y.) were coated with 100 ng/50 μl/well of goat anti-human IgG in phosphate buffered saline (PBS) for 2 hours at room temperature. Next, 50 ng/100 μl/well of IRTA2-Fc in blocking buffer (25% DMEM, 5% FBS, 25 mM HEPES, 0.5% bovine serum albumin, 0.1% sodium azide in PBS) was added to each well and incubated for 2 hours at room temperature. After washing with PBS containing 0.05% Tween 20, 50 μl of the hybridoma supernatants were added and incubated for 2 hours at room temperature. After washing, the bound MAbs were detected by a 2-hour incubation with horseradish peroxidase (HRP)-labeled goat anti-mouse IgG (Jackson ImmunoResearch, Grove, Pa.) followed by tetramethylbenzidine (TMB) substrate kit (Pierce, Rockford, Ill.). In some experiments, other IRTA-Fc fusion proteins were used instead of IRTA2-Fc.
Affinity Determination. Affinities (dissociation constant, Kd) of the anti-IRTA2 MAbs to IRTA2-Fc were determined by ELISA as previously described (Friguet et al., J Immunol Methods 77:305-19, 1985). Briefly, each MAb was incubated with various concentrations of IRTA2-Fc at room temperature for 20 hours to reach equilibrium; then the amount of MAb that remains unbound at equilibrium was measured by the indirect ELISA as described above.

The target of experiment [3] is T3, CD30-Fc fusion protein (human, UniProt P28908 19-385).
T3 construct: extracellular domain; Negative control antigen; not shown: human IgG1 hinge and Fc of pRB-2k1-CD30
T3 sequence (looked up): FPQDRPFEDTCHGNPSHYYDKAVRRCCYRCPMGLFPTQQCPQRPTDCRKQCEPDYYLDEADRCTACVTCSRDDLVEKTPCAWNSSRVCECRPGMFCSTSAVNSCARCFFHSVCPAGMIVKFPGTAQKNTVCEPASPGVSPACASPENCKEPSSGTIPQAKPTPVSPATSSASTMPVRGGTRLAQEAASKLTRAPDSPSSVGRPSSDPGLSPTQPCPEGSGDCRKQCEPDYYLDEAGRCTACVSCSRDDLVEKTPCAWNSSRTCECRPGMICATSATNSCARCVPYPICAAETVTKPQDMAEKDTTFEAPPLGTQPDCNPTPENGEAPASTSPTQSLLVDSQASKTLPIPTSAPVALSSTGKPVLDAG
Kind of experiment: ELISA.

B1: F25 (antibody, IgG2a, V domains shown)
VH: EVQLQQSGPELVKPGTSVKMSCKASGYSFTGYFMNWMMQNHGKSLEWIGRINLYNGDTFYNQKFKDKATLTVDKSSNTVHMEFRSLASEDSAVYYCASSLYYFDYWGQGTTFTVSS
VL: DIVMTQSHKFMSTSVGDRVNITCKASQDVGTNVAWYQQKPGQSPKLLIYWASTRQTGVPDRFTGSGSGTDFTLTISNVQSEDLSDYFCQQYSSYPLTFGAGTKLELKR
notes: mouse hybridoma MAb, IgG2a, kappa; also called MAb F25; biotin-MAb F25
For the molecule B1, the binding result is recorded as “no binding (tested: ’0.2)” in experiment [1] and “no binding” in experiment [3]. For the same molecule, the Kd in experiment [2] was 1.2 nM.
